According to paper PMC6656783, “ABCE1 Controls Ribosome Recycling by an Asymmetric Dynamic Conformational Equilibrium” (Cell Reports, 2019):

Tests used:
[1] = target: T1, ABCE1 (Saccharolobus solfataricus, UniProt Q980K5, K177C/T393C); assay: malachite green ATPase assay; format: biochemical; details: site II variant, before and after Cy3B/Atto647N labelling of the protein; 5 mM ATP, 10 mM MgCl2, pH 7.5, 80 °C
T1 construct: gene SSO0287; full length with N-terminal FeS cluster domain, C-terminal His6 tag, pSA4 vector, expressed in E. coli BL21(DE3) pRARE; about 70 kDa

[2] = target: 30S ribosomal subunit from Sulfolobus solfataricus (Sulfolobus solfataricus); assay: dissociation time course by burst-length analysis in single-molecule ALEX/smFRET; 30 nM labelled ABCE1 with 25 μM AMP-PNP and 12.5 μM 30S, 73°C 10 min; then 630-fold dilution with 2 μM unlabelled ABCE1, dissociation followed at 73°C for 0-10 min; the association rate is estimated from this rate and the KD
[3] = target: 30S ribosomal subunit from Sulfolobus solfataricus (Sulfolobus solfataricus); assay: burst-length (diffusion) analysis in single-molecule ALEX/smFRET; titration of 30S; percentage of 30S-bound ABCE1 at each concentration; 2 mM AMP-PNP, 73°C, 10 min

koff [2] [s⁻¹]	kon [2] [M⁻¹ s⁻¹]	Kd [3] [nM]	Molecule	malachite green ATPase assay [1]
–	–	–	Nc1ncnc2c1ncn2[C@@H]1O[C@H](COP(=O)(O)OP(=O)(O)OP(=O)(O)O)[C@@H](O)[C@H]1O [ATP]	verified by determining the basal ATP hydrolysis, which was similar to the wild type
0.00833	400000	20	ABCE1^K177C/T393C (site II variant), labelled with Cy3B and Atto647N (enzyme)	–
